# Experimental data as given in the supplement of paper PMC12855868.
# B1: library; numbered along this chain (parent)
# chain: MAAAGGARLLRAASAVLGGPAGRWLHHAGSRAGSSGLLRNRGPGGSAEASRSLSVSARARSSSEDKITVHFINRDGETLTTKGKVGDSLLDVVVENNLDIDGFGACEGTLACSTCHLIFEDHIYEKLDAITDEENDMLDLAYGLTDRSRLGCQICLTKSMDNMTVRVPETVADARQSIDVGKTS
# Variants of: B1
# Assay: scaled log2 fold change in cell abundance, elesclomol vs control (0 = silent mean, 1 = nonsense mean) (scaled log2 ratio); higher = higher viability under elesclomol (loss of FDX1 cuproptosis function)
# Settings: glucose 10 mM
# Description: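 Deep mutational scan of full-length human FDX1: a pooled saturation-mutagenesis ORF library (every residue 2-184 mutated to all 19 amino acids plus stop, and silent codons where available) was expressed by lentivirus in FDX1-knockout ABC1 (14 days) or HEK293T (11 days) cells grown with elesclomol (ES) or DMSO control. Variant abundance came from ORF sequencing. The log2 fold change (ES vs control, mean of duplicates) was centred on the silent-variant mean (0) and scaled to the nonsense-variant mean (1). Higher values mean greater viability under ES, i.e. loss of FDX1 function in cuproptosis.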
# [1] = with ABC1 FDX1 KO, elesclomol 5 nM, 14 days
# [2] = with HEK293T FDX1 KO, elesclomol 40 nM, 11 days
# 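Further: variant abundance is its share of total variant reads in each endpoint sample, from next-generation sequencing of the integrated ORF PCR-amplified out of genomic DNA.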
Variant,scaled log2 fold change [1],scaled log2 fold change [2]
T80H,0.295,–
T80I,0.231,0.056
T80K,0.183,-0.131
T80L,-0.289,-0.147
T80M,0.0647,–
T80N,0.128,–
T80P,0.231,-0.0181
T80Q,-0.0848,0.379
T80R,-0.0268,-0.512
T80S,-0.407,–
T80V,0.126,-0.0679
T80W,0.177,0.805
T80Y,0.26,-0.203
T81A,0.0513,1.11
T81C,0.0149,-0.28
T81D,-0.11,-0.616
T81E,0.273,0.0361
T81F,0.141,–
T81G,0.204,-1.09
T81H,0.282,-0.297
T81I,0.266,0.81

Variant,scaled log2 fold change [1],scaled log2 fold change [2]
T81K,0.0566,0.178
T81L,0.127,0.885
T81M,-0.27,0.26
T81N,0.308,0.885
T81P,0.103,1.32
T81Q,-0.159,-0.00467
T81R,0.181,0.0327
T81S,-0.82,1.14
T81V,0.0264,-0.0523
T81W,-0.0129,-0.543
T81Y,-0.015,-0.0662
K82A,0.109,–
K82C,0.296,0.165
K82D,-0.58,-0.293
K82E,0.0245,-0.309
K82F,-0.531,-0.243
K82G,-0.688,-0.137
K82H,-0.223,-0.0273
K82I,0.215,0.419
K82L,0.0365,-0.76
K82M,0.172,–

Variant,scaled log2 fold change [1],scaled log2 fold change [2]
K82N,-0.873,0.352
K82P,-0.285,-0.31
K82Q,-0.471,–
K82R,-0.619,-0.611
K82S,-0.449,–
K82T,-0.0344,0.0849
K82V,-0.0519,0.989
K82W,0.0928,-0.0187
K82Y,-0.328,-0.154
G83A,0.184,-0.672
G83C,0.0146,0.00891
G83D,0.697,0.804
G83E,0.881,0.975
G83F,0.576,0.231
G83H,0.285,-0.572
G83I,0.557,0.712
G83K,0.72,0.427
G83L,0.777,1.06
G83M,0.483,0.859
